The values that follow come from patent US20230110958A1 (Regeneron, published 2023).

Holding throughout (test): cell-based or functional assay
The target in assay [1] is human IL27 receptor (IL27Ra and gp130) on NCI-H929/GAS-Luc cells (human) (UniProt Q6UWB1).
Assay [2] concerns the target T1, murine IL27 receptor (IL27Ra and gp130) on mouse cells (MC9/STAT3-Luc reporter cells; splenic CD4+ T cells) (mouse, UniProt O70394 25-623; Q00560 23-917).
T1 sequence (looked up) 1: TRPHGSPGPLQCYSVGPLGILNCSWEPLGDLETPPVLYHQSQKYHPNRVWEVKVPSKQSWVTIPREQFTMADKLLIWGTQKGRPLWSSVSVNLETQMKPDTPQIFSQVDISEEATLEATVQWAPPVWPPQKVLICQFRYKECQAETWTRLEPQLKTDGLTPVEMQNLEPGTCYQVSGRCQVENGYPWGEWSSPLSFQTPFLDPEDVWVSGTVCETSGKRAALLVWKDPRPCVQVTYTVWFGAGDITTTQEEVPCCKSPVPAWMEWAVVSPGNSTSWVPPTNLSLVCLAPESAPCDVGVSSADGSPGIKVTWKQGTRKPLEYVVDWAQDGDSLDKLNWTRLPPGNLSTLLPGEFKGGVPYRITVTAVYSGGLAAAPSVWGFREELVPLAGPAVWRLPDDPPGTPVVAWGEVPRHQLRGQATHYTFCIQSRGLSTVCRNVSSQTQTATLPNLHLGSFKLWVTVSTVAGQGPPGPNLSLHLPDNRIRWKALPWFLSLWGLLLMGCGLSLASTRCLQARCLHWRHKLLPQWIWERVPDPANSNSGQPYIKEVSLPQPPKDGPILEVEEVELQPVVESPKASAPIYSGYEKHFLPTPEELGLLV
T1 sequence (looked up) 2: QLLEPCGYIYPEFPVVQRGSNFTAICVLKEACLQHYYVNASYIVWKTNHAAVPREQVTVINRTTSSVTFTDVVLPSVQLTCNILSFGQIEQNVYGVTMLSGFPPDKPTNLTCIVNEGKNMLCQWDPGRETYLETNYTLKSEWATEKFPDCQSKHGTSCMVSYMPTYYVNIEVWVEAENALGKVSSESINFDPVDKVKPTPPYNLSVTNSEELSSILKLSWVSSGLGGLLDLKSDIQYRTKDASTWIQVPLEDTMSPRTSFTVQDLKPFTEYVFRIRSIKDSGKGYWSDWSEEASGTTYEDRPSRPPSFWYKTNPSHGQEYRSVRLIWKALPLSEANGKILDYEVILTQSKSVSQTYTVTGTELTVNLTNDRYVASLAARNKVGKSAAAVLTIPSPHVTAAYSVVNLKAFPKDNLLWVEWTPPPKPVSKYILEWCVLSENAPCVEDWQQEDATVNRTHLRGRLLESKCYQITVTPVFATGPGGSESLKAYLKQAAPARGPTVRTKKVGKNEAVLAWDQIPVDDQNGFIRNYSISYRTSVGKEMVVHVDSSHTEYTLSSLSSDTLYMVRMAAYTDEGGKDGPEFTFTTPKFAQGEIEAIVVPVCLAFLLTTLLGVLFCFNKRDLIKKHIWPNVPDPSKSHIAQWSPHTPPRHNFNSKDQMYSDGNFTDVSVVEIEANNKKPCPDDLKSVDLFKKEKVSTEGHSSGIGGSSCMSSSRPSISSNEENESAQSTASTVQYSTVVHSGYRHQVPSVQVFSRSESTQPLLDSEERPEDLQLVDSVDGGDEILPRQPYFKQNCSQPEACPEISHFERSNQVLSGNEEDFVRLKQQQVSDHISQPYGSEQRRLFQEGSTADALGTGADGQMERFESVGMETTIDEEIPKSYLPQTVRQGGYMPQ

The target in assay [3] is T1, murine IL27 receptor (IL27Ra and gp130) …. This is another data set of the same source.
In assay [4] the target is T2, murine IL27 receptor (IL27Ra and gp130) on mouse cells (MC9/STAT3-Luc reporter cells; splenic CD4+ T cells) (mouse) (UniProt O70394).
T2 sequence (looked up) 1: T1 sequence (looked up) 1
T2 sequence (looked up) 2: T1 sequence (looked up) 2

Where a chain is given by its changes, count along the chain named. In names and notes the source's numbering stands.

Chain of human IL27 receptor (IL27Ra and gp130) on NCI-H929/GAS-Luc cells (human) (Q6UWB1 33-636, chain 1 of 2): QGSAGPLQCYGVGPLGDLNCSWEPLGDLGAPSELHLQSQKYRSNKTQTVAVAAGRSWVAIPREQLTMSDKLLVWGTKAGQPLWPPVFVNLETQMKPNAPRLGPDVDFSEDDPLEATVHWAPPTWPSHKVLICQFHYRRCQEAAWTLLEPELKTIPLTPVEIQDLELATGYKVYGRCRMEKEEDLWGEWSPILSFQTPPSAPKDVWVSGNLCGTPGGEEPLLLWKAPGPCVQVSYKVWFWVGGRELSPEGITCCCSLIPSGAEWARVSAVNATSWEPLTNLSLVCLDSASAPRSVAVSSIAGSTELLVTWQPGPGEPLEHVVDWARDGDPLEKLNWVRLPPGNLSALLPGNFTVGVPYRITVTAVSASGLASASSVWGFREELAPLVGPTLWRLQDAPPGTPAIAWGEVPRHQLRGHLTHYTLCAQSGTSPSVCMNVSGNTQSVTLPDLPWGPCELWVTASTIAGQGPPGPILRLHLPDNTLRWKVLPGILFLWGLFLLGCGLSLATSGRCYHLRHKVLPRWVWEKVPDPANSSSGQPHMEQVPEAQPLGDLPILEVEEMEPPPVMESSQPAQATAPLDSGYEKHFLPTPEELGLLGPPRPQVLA
Chain of human IL27 receptor (IL27Ra and gp130) on NCI-H929/GAS-Luc cells (human) (chain, as listed by the source, chain 2 of 2): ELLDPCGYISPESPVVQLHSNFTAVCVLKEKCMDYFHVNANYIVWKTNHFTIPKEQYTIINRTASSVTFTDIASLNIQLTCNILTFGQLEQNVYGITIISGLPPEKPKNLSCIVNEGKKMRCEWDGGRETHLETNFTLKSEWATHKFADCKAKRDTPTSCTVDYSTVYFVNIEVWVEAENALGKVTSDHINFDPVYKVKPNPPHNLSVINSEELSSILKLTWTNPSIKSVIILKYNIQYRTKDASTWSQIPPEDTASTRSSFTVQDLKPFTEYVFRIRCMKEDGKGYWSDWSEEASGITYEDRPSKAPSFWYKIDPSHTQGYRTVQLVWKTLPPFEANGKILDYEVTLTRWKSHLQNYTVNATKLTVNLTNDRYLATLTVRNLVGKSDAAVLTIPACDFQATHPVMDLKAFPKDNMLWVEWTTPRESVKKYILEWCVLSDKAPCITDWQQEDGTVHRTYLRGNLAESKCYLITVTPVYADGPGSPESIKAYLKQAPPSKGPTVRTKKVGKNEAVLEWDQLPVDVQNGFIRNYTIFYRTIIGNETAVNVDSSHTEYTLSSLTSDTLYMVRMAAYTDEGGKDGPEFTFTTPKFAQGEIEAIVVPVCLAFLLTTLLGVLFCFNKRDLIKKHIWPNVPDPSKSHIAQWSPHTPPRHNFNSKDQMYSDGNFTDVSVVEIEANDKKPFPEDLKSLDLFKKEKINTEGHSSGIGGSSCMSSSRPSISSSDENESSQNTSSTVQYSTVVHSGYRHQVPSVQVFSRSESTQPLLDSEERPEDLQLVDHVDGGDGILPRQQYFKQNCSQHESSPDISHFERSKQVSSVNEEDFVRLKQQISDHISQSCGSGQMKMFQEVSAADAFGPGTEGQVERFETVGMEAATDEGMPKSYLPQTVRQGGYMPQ

As for “human EBI3-p28-Fc (bivalent), configuration IL27M1 (Fc fusion)”, in assay [1], the EC50 (M), GAS luciferase, NCI-H929/GAS-Luc cells was 5.35e-09 M and the FOLD INDUCTION, GAS luciferase, NCI-H929/GAS-Luc cells was found to be 15.2 fold.

B1: IL27M16, monovalent Fc x EBI3-p28 (Fc fusion)
chain 1: ESKYGPPCPPCPAPPVAGPSVFLFPPKPKDTLMISRTPEVTCVVVDVSQEDPEVQFNWYVDGVEVHNAKTKPREEQFNSTYRVVSVLTVLHQDWLNGKEYKCKVSNKGLPSSIEKTISKAKGQPREPQVYTLPPSQEEMTKNQVSLWCLVKGFYPSDIAVEWESNGQPENNYKTTPPVLDSDGSFFLYSRLTVDKSRWQEGNVFSCSVMHEALHNHYTQKSLSLSLGKGGGGSGGGGSGGGGSYTETALVALSQPRVQCHASRYPVAVDCSWTPLQAPNSTRSTSFIATYRLGVATQQQSQPCLQRSPQASRCTIPDVHLFSTVPYMLNVTAVHPGGASSSLLAFVAERIIKPDPPEGVRLRTAGQRLQVLWHPPASWPFPDIFSLKYRLRYRRRGASHFRQVGPIEATTFTLRNSKPHAKYCIQVSAQDLTDYGKPSDWSLPGQVESAPHKPGGGGSGGGGSGGGGSGGGGSFPTDPLSLQELRREFTVSLYLARKLLSEVQGYVHSFAESRLPGVNLDLLPLGYHLPNVSLTFQAWHHLSDSERLCFLATTLRPFPAMLGGLGTQGTWTSSEREQLWAMRLDLRDLHRHLRFQVLAAGFKCSKEEEDKEEEEEEEEEEKKLPLGALGGPNQVSSQVSWPQLLYTYQLLHSLELVLSRAVRDLLLLSLPRRPGSAWDS
chain 2: ESKYGPPCPPCPAPPVAGPSVFLFPPKPKDTLMISRTPEVTCVVVDVSQEDPEVQFNWYVDGVEVHNAKTKPREEQFNSTYRVVSVLTVLHQDWLNGKEYKCKVSNKGLPSSIEKTISKAKGQPREPQVYTLPPSQEEMTKNQVSLSCAVKGFYPSDIAVEWESNGQPENNYKTTPPVLDSDGSFFLVSRLTVDKSRWQEGNVFSCSVMHEALHNRFTQKSLSLSPGK
For B1, in assay [2], the “EC50 (M), STAT3 luciferase, MC9/STAT3-Luc cells” value (from here on “EC50 (M) … MC9/STAT3-Luc cells”) is 1.16e-11 M and the “FOLD INDUCTION, STAT3 luciferase, MC9/STAT3-Luc cells” value (shortened to “FOLD INDUCTION … MC9/STAT3-Luc cells”) is 5.62 fold. For the same molecule, in assay [3], the “EC50 (M), STAT3 luciferase, MC9 cells” value came out at 1.18e-11 M and the “FOLD INDUCTION, STAT3 luciferase, MC9 cells” value (from here on “FOLD INDUCTION … MC9 cells”) is 2.76 fold.

B2: IL27M24, monovalent Fc x EB13-p28 (K52A) (Fc fusion)
chain 1: B1 chain 1 with K497A
chain 2: B1 chain 2
With B2, in assay [2], the “EC50 (M) … MC9/STAT3-Luc cells” value was 1.18e-11 M and the “FOLD INDUCTION … MC9/STAT3-Luc cells” value worked out at 5.59 fold.

B3: IL27M27, monovalent Fc x EB13-p28 (W195A) (Fc fusion)
chain 1: B1 chain 1 with W640A
chain 2: B1 chain 2
Consider B3, for which, in assay [2], the “FOLD INDUCTION … MC9/STAT3-Luc cells” value is 1.2 fold.

B4: IL27M23, monovalent Fc x EB13-p28 (Y202A, Q203A) (Fc fusion)
chain 1: B1 chain 1 with Y647A, Q648A
chain 2: B1 chain 2
On to B4, for which, in assay [2], the “EC50 (M) … MC9/STAT3-Luc cells” value is 1.98e-11 M and the “FOLD INDUCTION … MC9/STAT3-Luc cells” value turned out to be 5.34 fold.

B5: IL27M26, monovalent Fc x EB13-p28 (L198A, L199A) (Fc fusion)
chain 1: B1 chain 1 with L643A, L644A
chain 2: B1 chain 2
Take B5: in assay [2], the “EC50 (M) … MC9/STAT3-Luc cells” value worked out at 3.85e-10 M and the “FOLD INDUCTION … MC9/STAT3-Luc cells” value stood at 2.8 fold.

B6: IL27M25, monovalent Fc x EB13-p28 (L138A, R145A, H146A) (Fc fusion)
chain 1: B1 chain 1 with L583A, R590A, H591A
chain 2: B1 chain 2
For B6, the “FOLD INDUCTION … MC9/STAT3-Luc cells” value in assay [2] was 4.35 fold.

B7: IL27M14, 2:2 complex between IL27M13 (p28-Fc) and EBI3-mmh (Fc fusion)
chain 1: FPTDPLSLQELRREFTVSLYLARKLLSEVQGYVHSFAESRLPGVNLDLLPLGYHLPNVSLTFQAWHHLSDSERLCFLATTLRPFPAMLGGLGTQGTWTSSEREQLWAMRLDLRDLHRHLRFQVLAAGFKCSKEEEDKEEEEEEEEEEKKLPLGALGGPNQVSSQVSWPQLLYTYQLLHSLELVLSRAVRDLLLLSLPRRPGSAWDSGGGGSGGGGSGGGGSESKYGPPCPPCPAPPVAGPSVFLFPPKPKDTLMISRTPEVTCVVVDVSQEDPEVQFNWYVDGVEVHNAKTKPREEQFNSTYRVVSVLTVLHQDWLNGKEYKCKVSNKGLPSSIEKTISKAKGQPREPQVYTLPPSQEEMTKNQVSLTCLVKGFYPSDIAVEWESNGQPENNYKTTPPVLDSDGSFFLYSRLTVDKSRWQEGNVFSCSVMHEALHNHYTQKSLSLSLGK
chain 2: YTETALVALSQPRVQCHASRYPVAVDCSWTPLQAPNSTRSTSFIATYRLGVATQQQSQPCLQRSPQASRCTIPDVHLFSTVPYMLNVTAVHPGGASSSLLAFVAERIIKPDPPEGVRLRTAGQRLQVLWHPPASWPFPDIFSLKYRLRYRRRGASHFRQVGPIEATTFTLRNSKPHAKYCIQVSAQDLTDYGKPSDWSLPGQVESAPHKPEQKLISEEDLGGEQKLISEEDLHHHHHH
On to B7, for which, in assay [3], the “EC50 (M), STAT3 luciferase, MC9 cells” value is 2.81e-10 M and the “FOLD INDUCTION … MC9 cells” value worked out at 2.71 fold.

B8: IL27M17, Bivalent Fc-p28 (Fc fusion)
chain: ESKYGPPCPPCPAPPVAGPSVFLFPPKPKDTLMISRTPEVTCVVVDVSQEDPEVQFNWYVDGVEVHNAKTKPREEQFNSTYRVVSVLTVLHQDWLNGKEYKCKVSNKGLPSSIEKTISKAKGQPREPQVYTLPPSQEEMTKNQVSLTCLVKGFYPSDIAVEWESNGQPENNYKTTPPVLDSDGSFFLYSRLTVDKSRWQEGNVFSCSVMHEALHNHYTQKSLSLSLGKGGGGSGGGGSGGGGSFPTDPLSLQELRREFTVSLYLARKLLSEVQGYVHSFAESRLPGVNLDLLPLGYHLPNVSLTFQAWHHLSDSERLCFLATTLRPFPAMLGGLGTQGTWTSSEREQLWAMRLDLRDLHRHLRFQVLAAGFKCSKEEEDKEEEEEEEEEEKKLPLGALGGPNQVSSQVSWPQLLYTYQLLHSLELVLSRAVRDLLLLSLPRRPGSAWDS
As for B8, the “FOLD INDUCTION … MC9 cells” value in assay [3] came out at 1.16 fold.

B9: IL27M18, 2:2 complex between IL27M17 (Fc-p28) and EBI3-mmh (Fc fusion)
chain 1: B8 chain
chain 2: B7 chain 2
Regarding B9, in assay [3], the “EC50 (M), STAT3 luciferase, MC9 cells” value was found to be 2.36e-10 M and the “FOLD INDUCTION … MC9 cells” value was determined as 2.86 fold.

B10: Recombinant murine IL27 (R&D Systems cat# 2700-ML-010/CF), Mouse EBI3-(GGGS)4-Mouse p28-6-His tag (ligand)
chain: YTETALVALSQPRVQCHASRYPVAVDCSWTPLQAPNSTRSTSFIATYRLGVATQQQSQPCLQRSPQASRCTIPDVHLFSTVPYMLNVTAVHPGGASSSLLAFVAERIIKPDPPEGVRLRTAGQRLQVLWHPPASWPFPDIFSLKYRLRYRRRGASHFRQVGPIEATTFTLRNSKPHAKYCIQVSAQDLTDYGKPSDWSLPGQVESAPHKPGGGSGGGSGGGSGGGSFPTDPLSLQELRREFTVSLYLARKLLSEVQGYVHSFAESRLPGVNLDLLPLGYHLPNVSLTFQAWHHLSDSERLCFLATTLRPFPAMLGGLGTQGTWTSSEREQLWAMRLDLRDLHRHLRFQVLAAGFKCSKEEEDKEEEEEEEEEEKKLPLGALGGPNQVSSQVSWPQLLYTYQLLHSLELVLSRAVRDLLLLSLPRRPGSAWDSHHHHHH
In assay [4], B10 yielded an EC50 (M), STAT3 luciferase, MC9/STAT3-Luc cells of 3.22e-12 M; an EC50 (M), STAT3 luciferase, MC9 cells of 4.62e-12 M; an EC50, luciferase activity, MC9/STAT3-Luc reporter cells of 0.0063 nM; an EC50, phosphorylation of STAT1 in CD4+ T-cells of 0.0244 µg/mL. For the same molecule, in assay [4], the FOLD INDUCTION, STAT3 luciferase, MC9/STAT3-Luc cells turned out to be 5.25 fold and the FOLD INDUCTION, STAT3 luciferase, MC9 cells stood at 2.86 fold.
